Here are results for one molecule from paper PMC10978497, “The GTPase activating protein Gyp7 regulates Rab7/Ypt7 activity on late endosomes” (The Journal of Cell Biology, 2024).

The target in the experiment is T1, guanine nucleotide dissociation inhibitor (GDI) (yeast, UniProt P39958 1-451).
T1 construct: expressed as GST-PreSc-GDI; also called Gdi1; source: E. coli BL21 DE3 (Rosetta), purified (glutathione sepharose, cleaved from the beads with PreScission protease); not shown: GST, N-terminal, cleaved
T1 sequence (looked up): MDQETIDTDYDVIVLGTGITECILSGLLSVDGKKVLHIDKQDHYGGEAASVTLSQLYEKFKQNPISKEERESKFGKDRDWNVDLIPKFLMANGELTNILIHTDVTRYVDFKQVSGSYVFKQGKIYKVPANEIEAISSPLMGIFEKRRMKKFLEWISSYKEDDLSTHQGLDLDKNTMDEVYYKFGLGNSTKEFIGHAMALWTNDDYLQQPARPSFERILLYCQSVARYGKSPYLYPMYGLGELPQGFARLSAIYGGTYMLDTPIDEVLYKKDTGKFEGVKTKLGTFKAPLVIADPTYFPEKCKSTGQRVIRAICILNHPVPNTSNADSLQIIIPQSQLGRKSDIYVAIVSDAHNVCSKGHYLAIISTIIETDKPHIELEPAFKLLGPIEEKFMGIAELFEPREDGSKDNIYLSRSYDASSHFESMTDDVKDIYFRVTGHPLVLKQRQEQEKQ
Briefly: SEC; after in vitro prenylation (Rab GTPase, GDI, His6-Mrs6, Bet4 His6-TEV-Bet2 at 10:9:1:1, 37°C, 1.5 h) and removal of His6-Mrs6 and Bet4 His6-TEV-Bet2 on Ni2+ resin, the supernatant was loaded on a Superdex200 increase column; prenylation buffer 50 mM HEPES-NaOH pH 7.4, 150 mM NaCl, 1.5 mM MgCl2, 1 mM DTT. The note with it: both partners purified. On the technique in general: Size exclusion chromatography separates by hydrodynamic size, large species first.

B1: prenylated Ypt7 (natural protein, yeast, UniProt P32939 1-208, looked up)
chain: MSSRKKNILKVIILGDSGVGKTSLMHRYVNDKYSQQYKATIGADFLTKEVTVDGDKVATMQVWDTAGQERFQSLGVAFYRGADCCVLVYDVTNASSFENIKSWRDEFLVHANVNSPETFPFVILGNKIDAEESKKIVSEKSAQELAKSLGDIPLFLTSAKNAINVDTAFEEIARSALQQNQADTEAFEDDYNDAINIRLDGENNSCSC
modifications: prenylated in vitro with geranylgeranyl pyrophosphate (C-terminal prenyl anchor; positions not stated)
notes: Ypt7, the Rab7-like GTPase of yeast; The methods list GST-TEV-Ypt7 (cleaved off the beads with TEV protease), Ypt7-His6 and, once, His6-TEV-Ypt7; I surmise that the prenylated Ypt7 came from GST-TEV-Ypt7, because it has a free C-terminus; also called Rab7-like Ypt7; Ypt7-GDP; source: E. coli BL21 DE3 (Rosetta), purified; preloaded with GDP and prenylated in vitro (Mrs6, Bet4-Bet2, geranylgeranyl …)
As to B1, the binding result is given as “binds”.
